Reference: US20240182548A1 (AstraZeneca / MedImmune, published 2024)

B1: 2096 (antibody, V domains shown)
VH: QVQLVQSGAEVKKPGASVKVSCKASGYTFGSFDINWVRQATGQGLEWMGRMNSNSGNTAYAQKFQGRVTMTRDTSTNTAYMELSSLRSEDTAMYYCARMRSGWPTHGRPDDFWGRGTLVTVSS
VL: QSVLTQAPSASGTPGQRVTISCSGSNSNIGSYTINWYQQLPGTAPKLLIYGNDQRTSGVPDRFSGSKFGTSASLAISGLQSEDENNYYCAVWDDSLNGLVFGGGTKLTVL
B2: 2094 (antibody, V domains shown)
VH: EVQLVESGGGVVRPGGSLRLSCAASGFIFDDYDMTWVRQAPGKGLEWVSGINWNGGSTGYADSVKGRFTISRDNAKNSLYLQMNSLRAEDTALYHCAVIMSPIPRYSGYDWAGDAFDIWGQGTMVTVSS
VL: SSELTQDPAVSVALGQTVRITCQGDSLRSYYASWYQQKPGQVPILVIYDKNNRPSGIPDRFSGSSSGNTASLTITGAQAEDEADYYCNSRDSSGNAVVFGGGTKLTVL

Molecular target: SARS2 spike protein with C-terminal 19aa deletion, on S protein pseudotyped lentivirus (SARS-CoV-2, UniProt P0DTC2 13-1254)
Assay: cell-based or functional assay

Row | Binder | Pseudovirus neutralization IC50
1 | B1 | 3.3 ng/mL
2 | B2 | 3 ng/mL
